Drawing on patent publication US20210077638A1, this text covers EC50 (read off the curve) and ABC (antibody binding capacity) for 1 molecule.

What is called EC50 (read off the curve) is the concentration giving half of the maximal effect.

For assay [1], the target named is human MET on EBC-1, NCI-H441 and NCI-H358 cells (human) (UniProt P08581). Description: saturation radioligand binding (antibody binding capacity) assay with 89Zr-DFO-Comp1 on EBC-1 cells, 4 C, 45 min, gamma counting; x axis is total antibody dosed, not free.
The target is the same in assay [2]. Description: saturation radioligand binding on NCI-H441 cells, 4 C, single-site fit, n=4.
Assay [3] has the same target. Description: saturation radioligand binding on NCI-H358 cells, 4 C, single-site fit, n=2.
Assay [4] has the same target. Description: saturation radioligand binding (antibody binding capacity) assay with 89Zr-DFO-Comp1 on NCI-H441 cells, 4 C, 45 min, gamma counting; x axis is total antibody dosed, not free.
Assay [5] shares this target. The assay can be described thus: saturation radioligand binding on EBC-1 cells, 4 C, single-site fit, n=4.

human MET on EBC-1, NCI-H441 and NCI-H358 cells (human), sequence (P08581 25-1390): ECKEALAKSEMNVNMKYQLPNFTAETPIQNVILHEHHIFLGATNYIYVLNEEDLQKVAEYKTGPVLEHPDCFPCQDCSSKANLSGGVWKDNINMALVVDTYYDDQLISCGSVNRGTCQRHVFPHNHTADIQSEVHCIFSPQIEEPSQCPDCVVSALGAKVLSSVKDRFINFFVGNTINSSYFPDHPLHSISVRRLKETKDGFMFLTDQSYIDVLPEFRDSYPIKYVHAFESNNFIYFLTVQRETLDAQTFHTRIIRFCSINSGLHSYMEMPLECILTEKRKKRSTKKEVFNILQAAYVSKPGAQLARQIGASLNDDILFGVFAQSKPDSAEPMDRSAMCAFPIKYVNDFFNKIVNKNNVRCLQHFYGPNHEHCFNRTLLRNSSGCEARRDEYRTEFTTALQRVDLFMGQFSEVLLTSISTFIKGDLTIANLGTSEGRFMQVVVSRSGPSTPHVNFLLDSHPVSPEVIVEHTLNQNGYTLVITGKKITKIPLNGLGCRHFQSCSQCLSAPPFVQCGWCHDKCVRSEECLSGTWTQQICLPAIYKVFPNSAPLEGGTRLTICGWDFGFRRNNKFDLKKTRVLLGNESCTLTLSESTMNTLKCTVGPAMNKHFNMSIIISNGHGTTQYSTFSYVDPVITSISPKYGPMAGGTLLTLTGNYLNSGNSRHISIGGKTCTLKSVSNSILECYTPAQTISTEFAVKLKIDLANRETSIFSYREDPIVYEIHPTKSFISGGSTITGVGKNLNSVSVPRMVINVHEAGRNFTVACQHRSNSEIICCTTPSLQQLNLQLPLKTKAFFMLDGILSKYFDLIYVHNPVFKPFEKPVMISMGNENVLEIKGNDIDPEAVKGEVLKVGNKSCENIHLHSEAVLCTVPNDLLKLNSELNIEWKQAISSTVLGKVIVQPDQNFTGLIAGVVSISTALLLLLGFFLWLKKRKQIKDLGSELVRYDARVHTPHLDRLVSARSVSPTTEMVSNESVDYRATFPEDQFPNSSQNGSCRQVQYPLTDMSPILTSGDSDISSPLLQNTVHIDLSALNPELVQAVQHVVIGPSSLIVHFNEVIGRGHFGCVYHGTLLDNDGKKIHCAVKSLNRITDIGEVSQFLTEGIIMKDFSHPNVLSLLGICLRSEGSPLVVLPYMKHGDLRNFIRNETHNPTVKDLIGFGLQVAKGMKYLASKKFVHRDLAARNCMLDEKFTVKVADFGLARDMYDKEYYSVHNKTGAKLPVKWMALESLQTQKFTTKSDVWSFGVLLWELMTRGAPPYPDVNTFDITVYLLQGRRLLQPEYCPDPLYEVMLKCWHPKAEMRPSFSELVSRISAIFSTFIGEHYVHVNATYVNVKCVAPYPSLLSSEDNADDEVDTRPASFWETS

B1: 89Zr-DFO-anti-Met single-arm comparator antibody (Comp1; Onartuzumab) (antibody, INN chains, looked up, V domains shown)
VH: EVQLVESGGGLVQPGGSLRLSCAASGYTFTSYWLHWVRQAPGKGLEWVGMIDPSNSDTRFNPNFKDRFTISADTSKNTAYLQMNSLRAEDTAVYYCATYRSYVTPLDYWGQGTLVTVSS
VL: DIQMTQSPSSLSASVGDRVTITCKSSQSLLYTSSQKNYLAWYQQKPGKAPKLLIYWASTRESGVPSRFSGSGSGTDFTLTISSLQPEDFATYYCQQYYAYPWTFGQGTKVEIK
modifications: one-armed monovalent 89Zr-DFO label
B1: the EC50 (read off the curve) in assay [1] was determined as 4 nM; in assay [4], 3 nM. Besides, the ABC (antibody binding capacity) stood at 62000 per cell in assay [2], 21000 per cell in assay [3] and 250000 per cell in assay [5].
